Consider ten molecules from US20150344570A1 (published 2015).

For assay [1], the target named is T1, FcγRIa extracellular domain with C-terminal His tag (human, UniProt P12314 16-292).
T1 construct: extracellular domain; expressed in FreeStyle293 cells; analyte in Biacore; also called FcgRI; 1a
Put plainly: SPR (Biacore), captured antibody, FcγR as analyte; relative binding. On the technique in general: Surface plasmon resonance follows binding to a sensor surface in real time, without labels.

Assay [2] addresses T2, FcγRIIb extracellular domain with C-terminal His tag (human, UniProt P31994 43-217).
T2 construct: extracellular domain; expressed in FreeStyle293 cells; analyte in Biacore; also called FcgRIIb; 2b
T2 sequence (looked up): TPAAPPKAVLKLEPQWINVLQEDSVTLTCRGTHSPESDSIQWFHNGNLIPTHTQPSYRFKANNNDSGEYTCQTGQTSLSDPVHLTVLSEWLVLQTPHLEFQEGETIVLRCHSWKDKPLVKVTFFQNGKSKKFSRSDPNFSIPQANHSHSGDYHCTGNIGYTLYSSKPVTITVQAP
Described as above.

The target of a further assay is T3, FcγRIa (human, UniProt P12314 16-292).
T3 construct: extracellular domain; also called FcgRI; 1a
Put plainly: SPR (Biacore); He Ab relative to HeCon Ab = 100. The gist of the method:
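Antibodies were captured on antigen-peptide chips (amine-coupled to CM5, or biotinylated peptide on SA), then FcγR diluted in HBS-EP+ running buffer was injected as analyte at 25° C. Chips were regenerated with 10 mM glycine-HCl, pH 1.5 between cycles.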

T3 sequence (P12314 16-292): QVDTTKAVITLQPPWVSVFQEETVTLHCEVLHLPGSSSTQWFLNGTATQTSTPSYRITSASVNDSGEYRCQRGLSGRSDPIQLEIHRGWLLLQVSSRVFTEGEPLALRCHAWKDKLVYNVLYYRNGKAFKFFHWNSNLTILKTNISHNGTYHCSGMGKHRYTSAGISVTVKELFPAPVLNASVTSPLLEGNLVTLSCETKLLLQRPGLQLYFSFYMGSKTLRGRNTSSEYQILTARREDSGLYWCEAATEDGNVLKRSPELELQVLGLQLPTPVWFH
T1 sequence (P12314 16-292): as above

B1: GpH7-A5/GpH7-B3 variant Q295_10E/GpL16-k0 (antibody, human IgG1, kappa)
heavy 1: not shown
heavy 2: not shown
light: DIVMTQSPLSLPVTPGEPASISCQASESLVHSNRNTYLHWYLQKPGQSPQLLIYKVSNRFSGVPDRFSGSGSGTDFTLKISRVEAEDVGVYYCSQNTHVPPTFGQGTKVEIERTVAAPSVFIFPPSDEQLKSGTASVVCLLNNFYPREAKVQWKVDNALQSGNSQESVTEQDSKDSTYSLSSTLTLSKADYEKHKVYACEVTHQGLSSPVTKSFNRGEC
notes: He Ab; IgG1, mutation in one H chain
Consider B1, for which the He/Con_1a in assay [1] is 103 % of HeCon Ab (GpH7-A5/GpH7-B3/GpL16-k0 = 100). The He/Con_2b in assay [2] was 94.8 % of HeCon Ab (GpH7-A5/GpH7-B3/GpL16-k0 = 100).

B2: GpH7-A5/GpH7-B3 variant Q295_09D/GpL16-k0 (antibody, human IgG1, kappa)
heavy 1: not shown
heavy 2: not shown
light: DIVMTQSPLSLPVTPGEPASISCQASESLVHSNRNTYLHWYLQKPGQSPQLLIYKVSNRFSGVPDRFSGSGSGTDFTLKISRVEAEDVGVYYCSQNTHVPPTFGQGTKVEIERTVAAPSVFIFPPSDEQLKSGTASVVCLLNNFYPREAKVQWKVDNALQSGNSQESVTEQDSKDSTYSLSSTLTLSKADYEKHKVYACEVTHQGLSSPVTKSFNRGEC
notes: also called He Ab Q295_09D
As for B2, in the assay with FcγRIa, the He/Con_1a is 100 % of control.

B3: GpH7-A5/GpH7-B3 variant Q295_15Y/GpL16-k0 (antibody, human IgG1, kappa)
heavy 1: not shown
heavy 2: not shown
light: DIVMTQSPLSLPVTPGEPASISCQASESLVHSNRNTYLHWYLQKPGQSPQLLIYKVSNRFSGVPDRFSGSGSGTDFTLKISRVEAEDVGVYYCSQNTHVPPTFGQGTKVEIERTVAAPSVFIFPPSDEQLKSGTASVVCLLNNFYPREAKVQWKVDNALQSGNSQESVTEQDSKDSTYSLSSTLTLSKADYEKHKVYACEVTHQGLSSPVTKSFNRGEC
notes: also called He Ab Q295_15Y
In the case of B3, in the assay with FcγRIa, the He/Con_1a was 102 % of control.

B4: GpH7-A5/GpH7-B3 variant Q295_14T/GpL16-k0 (antibody, human IgG1, kappa)
heavy 1: not shown
heavy 2: not shown
light: DIVMTQSPLSLPVTPGEPASISCQASESLVHSNRNTYLHWYLQKPGQSPQLLIYKVSNRFSGVPDRFSGSGSGTDFTLKISRVEAEDVGVYYCSQNTHVPPTFGQGTKVEIERTVAAPSVFIFPPSDEQLKSGTASVVCLLNNFYPREAKVQWKVDNALQSGNSQESVTEQDSKDSTYSLSSTLTLSKADYEKHKVYACEVTHQGLSSPVTKSFNRGEC
notes: as for B1
Turning to B4, the He/Con_1a in assay [1] was 103 % of HeCon Ab (GpH7-A5/GpH7-B3/GpL16-k0 = 100). The He/Con_2b in assay [2] was 66.8 % of HeCon Ab (GpH7-A5/GpH7-B3/GpL16-k0 = 100).

B5: GpH7-A5/GpH7-B3 variant P271_14T/GpL16-k0 (antibody, human IgG1, kappa)
heavy 1: not shown
heavy 2: not shown
light: DIVMTQSPLSLPVTPGEPASISCQASESLVHSNRNTYLHWYLQKPGQSPQLLIYKVSNRFSGVPDRFSGSGSGTDFTLKISRVEAEDVGVYYCSQNTHVPPTFGQGTKVEIERTVAAPSVFIFPPSDEQLKSGTASVVCLLNNFYPREAKVQWKVDNALQSGNSQESVTEQDSKDSTYSLSSTLTLSKADYEKHKVYACEVTHQGLSSPVTKSFNRGEC
notes: also called He Ab P271_14T
On to B5, for which, in the assay with FcγRIa, the He/Con_1a is 102 % of control.

B6: GpH7-A5/GpH7-B3 variant Q295_16H/GpL16-k0 (antibody, human IgG1, kappa)
heavy 1: not shown
heavy 2: not shown
light: DIVMTQSPLSLPVTPGEPASISCQASESLVHSNRNTYLHWYLQKPGQSPQLLIYKVSNRFSGVPDRFSGSGSGTDFTLKISRVEAEDVGVYYCSQNTHVPPTFGQGTKVEIERTVAAPSVFIFPPSDEQLKSGTASVVCLLNNFYPREAKVQWKVDNALQSGNSQESVTEQDSKDSTYSLSSTLTLSKADYEKHKVYACEVTHQGLSSPVTKSFNRGEC
notes: as for B1
B6: in assay [1], the He/Con_1a was 102 % of HeCon Ab (GpH7-A5/GpH7-B3/GpL16-k0 = 100). In addition, the He/Con_2b in assay [2] is 62.7 % of HeCon Ab (GpH7-A5/GpH7-B3/GpL16-k0 = 100).

B7: GpH7-A5/GpH7-B3 variant Q295_11K/GpL16-k0 (antibody, human IgG1, kappa)
heavy 1: not shown
heavy 2: not shown
light: DIVMTQSPLSLPVTPGEPASISCQASESLVHSNRNTYLHWYLQKPGQSPQLLIYKVSNRFSGVPDRFSGSGSGTDFTLKISRVEAEDVGVYYCSQNTHVPPTFGQGTKVEIERTVAAPSVFIFPPSDEQLKSGTASVVCLLNNFYPREAKVQWKVDNALQSGNSQESVTEQDSKDSTYSLSSTLTLSKADYEKHKVYACEVTHQGLSSPVTKSFNRGEC
notes: as for B1
B7: in assay [1], the He/Con_1a is 101 % of HeCon Ab (GpH7-A5/GpH7-B3/GpL16-k0 = 100). Further, the He/Con_2b in assay [2] was 70.4 % of HeCon Ab (GpH7-A5/GpH7-B3/GpL16-k0 = 100).

B8: GpH7-A5/GpH7-B3 variant P329_01G/GpL16-k0 (antibody, human IgG1, kappa)
heavy 1: not shown
heavy 2: not shown
light: DIVMTQSPLSLPVTPGEPASISCQASESLVHSNRNTYLHWYLQKPGQSPQLLIYKVSNRFSGVPDRFSGSGSGTDFTLKISRVEAEDVGVYYCSQNTHVPPTFGQGTKVEIERTVAAPSVFIFPPSDEQLKSGTASVVCLLNNFYPREAKVQWKVDNALQSGNSQESVTEQDSKDSTYSLSSTLTLSKADYEKHKVYACEVTHQGLSSPVTKSFNRGEC
notes: also called He Ab P329_01G
B8: in the assay with FcγRIa, the He/Con_1a is 101 % of control.

B9: GpH7-A5/GpH7-B3 variant Q295_16H/GpL16-k0 (antibody, human IgG1, kappa)
heavy 1: not shown
heavy 2: not shown
light: DIVMTQSPLSLPVTPGEPASISCQASESLVHSNRNTYLHWYLQKPGQSPQLLIYKVSNRFSGVPDRFSGSGSGTDFTLKISRVEAEDVGVYYCSQNTHVPPTFGQGTKVEIERTVAAPSVFIFPPSDEQLKSGTASVVCLLNNFYPREAKVQWKVDNALQSGNSQESVTEQDSKDSTYSLSSTLTLSKADYEKHKVYACEVTHQGLSSPVTKSFNRGEC
notes: also called He Ab Q295_16H
For B9, the He/Con_1a with FcγRIa was 102 % of control.

B10: GpH7-A5/GpH7-B3 variant P271_15Y/GpL16-k0 (antibody, human IgG1, kappa)
heavy 1: not shown
heavy 2: not shown
light: DIVMTQSPLSLPVTPGEPASISCQASESLVHSNRNTYLHWYLQKPGQSPQLLIYKVSNRFSGVPDRFSGSGSGTDFTLKISRVEAEDVGVYYCSQNTHVPPTFGQGTKVEIERTVAAPSVFIFPPSDEQLKSGTASVVCLLNNFYPREAKVQWKVDNALQSGNSQESVTEQDSKDSTYSLSSTLTLSKADYEKHKVYACEVTHQGLSSPVTKSFNRGEC
notes: also called He Ab P271_15Y
Take B10: the He/Con_1a in the assay with FcγRIa was 103 % of control.
